Measurements reported in publication doi:10.1101/2021.12.16.472929 (bioRxiv, 2021).
Read-outs that look alike come from different tables or passages of the source.

Tests used:
SEC-SAXS [1] = target: the molecule itself; test: SEC-SAXS
SEC-SAXS [2] = target: the molecule itself; test: SEC-SAXS; remark: listed apart in the source
SEC = target: the molecule itself; test: SEC

B1: FLrArc-7A, full-length rat Arc with a poly-Ala mutation of residues 113-119 (natural protein)
chain: MELDHMTTGGLHAYPAPRGGPAAKPNVILQIGKCRAEMLEHVRRTHRHLLTEVSKQVERELKGLHRSVGKLENNLDGYVPTGDSQRWKKSIKACLCRCQETIANLERWVKREAAAAAAAFYRLERWADRLESMGGKYPVGSEPARHTVSVGVGGPEPYCQEADGYDYTVSPYAITPPPAAGELPEQESVGAQQYQSWVPGEDGQPSPGVDTQIFEDPREFLSHLEEYLRQVGGSEEYWLSQIQNHMNGPAKKWWEFKQGSVKNWVEFKKEFLQYSEGTLSREAIQRELDLPQKQGEPLDQFLWRKRDLYQTLYVDAEEEEIIQYVVGTLQPKFKRFLRHPLPKTLEQLIQRGMEVQDGLEQAAEPSVTPLPTEDETEALTPALTSESVASDRTQPE
For B1, the “stoichiometry N” value (SEC-SAXS [1]) was 2.

B2: MBP-2rNT, N-terminal domain of rat Arc (residues 24-137) with the poly-Ala mutation, His6-MBP fusion (domain or fragment)
chain: KPNVILQIGKCRAEMLEHVRRTHRHLLTEVSKQVERELKGLHRSVGKLENNLDGYVPTGDSQRWKKSIKACLCRCQETIANLERWVKREAAAAAAAFYRLERWADRLESMGGKY
For B2, the “stoichiometry N” value (SEC-SAXS [2]) was 2.

B3: FLhArc, full-length human Arc (capsid / high-molecular-weight forms) (natural protein)
chain: MELDHRTSGGLHAYPGPRGGQVAKPNVILQIGKCRAEMLEHVRRTHRHLLAEVSKQVERELKGLHRSVGKLESNLDGYVPTSDSQRWKKSIKACLCRCQETIANLERWVKREMHVWREVFYRLERWADRLESTGGKYPVGSESARHTVSVGVGGPESYCHEADGYDYTVSPYAITPPPAAGELPGQEPAEAQQYQPWVPGEDGQPSPGVDTQIFEDPREFLSHLEEYLRQVGGSEEYWLSQIQNHMNGPAKKWWEFKQGSVKNWVEFKKEFLQYSEGTLSREAIQRELDLPQKQGEPLDQFLWRKRDLYQTLYVDADEEEIIQYVVGTLQPKLKRFLRHPLPKTLEQLIQRGMEVQDDLEQAAEPAGPHLPVEDEAETLTPAPNSESVASDRTQPE
B3: binds (SEC).
